Data on two molecules can be found in patent US20180305423A1 (OKLAHOMA MEDICAL RESEARCH FOUNDATION, published 2018).

The target in experiment [1] is T1, IP3R1 (IP3 receptor 1, ITPR1) (mouse, UniProt P11881 1-2749, limits assumed).
T1 construct: also called IP3 Receptors
As to the kind of experiment: IP with epsin 1 antibody from oxLDL-treated MAEC, gel for mass spectrometry [panel A].

Experiment [2] concerns the target T2, IRS1 (insulin receptor substrate) (UniProt P35569 1-1233).
T2 sequence (looked up): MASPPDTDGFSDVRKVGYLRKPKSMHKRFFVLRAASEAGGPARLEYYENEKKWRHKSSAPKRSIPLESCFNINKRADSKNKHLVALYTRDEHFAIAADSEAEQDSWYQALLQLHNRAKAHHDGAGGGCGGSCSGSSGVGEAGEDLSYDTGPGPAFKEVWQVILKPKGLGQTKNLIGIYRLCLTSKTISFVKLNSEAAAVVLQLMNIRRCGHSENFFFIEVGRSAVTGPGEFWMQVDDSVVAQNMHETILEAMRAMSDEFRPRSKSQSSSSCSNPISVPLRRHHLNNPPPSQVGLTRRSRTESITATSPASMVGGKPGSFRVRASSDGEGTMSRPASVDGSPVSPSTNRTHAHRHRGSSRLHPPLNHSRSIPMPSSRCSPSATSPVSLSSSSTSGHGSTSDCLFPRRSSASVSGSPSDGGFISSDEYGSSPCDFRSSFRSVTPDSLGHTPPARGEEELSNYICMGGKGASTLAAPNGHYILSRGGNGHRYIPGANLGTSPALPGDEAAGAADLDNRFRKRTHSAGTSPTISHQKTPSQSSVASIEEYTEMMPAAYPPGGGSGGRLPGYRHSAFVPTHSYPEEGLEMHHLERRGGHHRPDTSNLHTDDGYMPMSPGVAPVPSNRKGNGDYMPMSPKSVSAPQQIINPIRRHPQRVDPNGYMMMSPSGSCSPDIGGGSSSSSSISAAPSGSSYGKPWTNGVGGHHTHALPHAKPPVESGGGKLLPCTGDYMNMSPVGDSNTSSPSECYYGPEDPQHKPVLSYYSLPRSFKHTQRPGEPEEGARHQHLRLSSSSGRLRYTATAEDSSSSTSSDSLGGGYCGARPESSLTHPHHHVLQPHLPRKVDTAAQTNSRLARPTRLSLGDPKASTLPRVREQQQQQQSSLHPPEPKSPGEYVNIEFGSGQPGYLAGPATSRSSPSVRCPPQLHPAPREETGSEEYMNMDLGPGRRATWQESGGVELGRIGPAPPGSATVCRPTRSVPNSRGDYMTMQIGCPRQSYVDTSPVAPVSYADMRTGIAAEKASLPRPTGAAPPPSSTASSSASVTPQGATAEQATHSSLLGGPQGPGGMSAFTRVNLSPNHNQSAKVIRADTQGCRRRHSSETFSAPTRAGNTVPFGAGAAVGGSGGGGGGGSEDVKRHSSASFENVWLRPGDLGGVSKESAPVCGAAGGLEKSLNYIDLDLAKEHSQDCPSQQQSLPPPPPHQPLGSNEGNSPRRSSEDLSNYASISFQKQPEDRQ
As to the kind of experiment: co-IP with anti-epsin 1 from 3T3-L1 pre-adipocytes with or without insulin, blot for IRS1.

Experiment [3] concerns the target T3, VEGFR2 (endogenous, HUVEC^αvβ3 cells) (human, UniProt P35968 20-1356).
T3 construct: whole, on cells
The experiment in a line: co-IP with anti-VEGFR2 from HUVECαvβ3 cells, blot for Epn1, with quantification [panel B].

T3 sequence (P35968 20-1356): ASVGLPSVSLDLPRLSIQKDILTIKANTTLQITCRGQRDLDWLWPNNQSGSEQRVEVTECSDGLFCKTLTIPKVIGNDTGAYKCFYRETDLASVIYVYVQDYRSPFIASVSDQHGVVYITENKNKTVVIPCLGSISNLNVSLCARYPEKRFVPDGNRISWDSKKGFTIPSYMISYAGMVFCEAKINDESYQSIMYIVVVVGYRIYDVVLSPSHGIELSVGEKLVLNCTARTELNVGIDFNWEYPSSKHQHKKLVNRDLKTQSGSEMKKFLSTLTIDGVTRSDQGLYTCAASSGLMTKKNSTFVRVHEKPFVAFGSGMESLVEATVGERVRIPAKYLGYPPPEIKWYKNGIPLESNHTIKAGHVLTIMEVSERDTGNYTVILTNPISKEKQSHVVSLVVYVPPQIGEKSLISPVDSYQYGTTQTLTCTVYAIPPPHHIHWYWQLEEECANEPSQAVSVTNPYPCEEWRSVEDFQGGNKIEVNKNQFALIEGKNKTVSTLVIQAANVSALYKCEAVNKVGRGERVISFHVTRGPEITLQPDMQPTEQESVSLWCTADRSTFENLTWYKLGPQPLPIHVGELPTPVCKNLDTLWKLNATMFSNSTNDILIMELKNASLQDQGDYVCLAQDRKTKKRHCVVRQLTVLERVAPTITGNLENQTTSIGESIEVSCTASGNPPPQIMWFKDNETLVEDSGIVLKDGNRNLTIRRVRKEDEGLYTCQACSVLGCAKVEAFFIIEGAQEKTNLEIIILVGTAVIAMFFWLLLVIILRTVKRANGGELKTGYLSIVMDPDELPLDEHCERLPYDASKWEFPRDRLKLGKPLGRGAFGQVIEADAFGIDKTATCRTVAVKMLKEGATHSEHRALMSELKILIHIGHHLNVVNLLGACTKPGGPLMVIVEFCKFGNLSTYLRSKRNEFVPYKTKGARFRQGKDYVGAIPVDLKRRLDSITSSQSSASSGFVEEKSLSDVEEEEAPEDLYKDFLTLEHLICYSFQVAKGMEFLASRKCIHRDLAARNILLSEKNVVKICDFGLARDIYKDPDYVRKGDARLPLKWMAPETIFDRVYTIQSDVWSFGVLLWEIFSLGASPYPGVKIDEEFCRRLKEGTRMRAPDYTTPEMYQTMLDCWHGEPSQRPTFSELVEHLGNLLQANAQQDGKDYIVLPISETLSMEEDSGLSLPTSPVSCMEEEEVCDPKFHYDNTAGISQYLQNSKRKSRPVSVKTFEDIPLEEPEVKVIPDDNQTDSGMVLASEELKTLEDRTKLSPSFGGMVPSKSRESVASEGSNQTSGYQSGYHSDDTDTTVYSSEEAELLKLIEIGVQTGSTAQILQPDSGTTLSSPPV
T1 sequence (P11881 whole entry): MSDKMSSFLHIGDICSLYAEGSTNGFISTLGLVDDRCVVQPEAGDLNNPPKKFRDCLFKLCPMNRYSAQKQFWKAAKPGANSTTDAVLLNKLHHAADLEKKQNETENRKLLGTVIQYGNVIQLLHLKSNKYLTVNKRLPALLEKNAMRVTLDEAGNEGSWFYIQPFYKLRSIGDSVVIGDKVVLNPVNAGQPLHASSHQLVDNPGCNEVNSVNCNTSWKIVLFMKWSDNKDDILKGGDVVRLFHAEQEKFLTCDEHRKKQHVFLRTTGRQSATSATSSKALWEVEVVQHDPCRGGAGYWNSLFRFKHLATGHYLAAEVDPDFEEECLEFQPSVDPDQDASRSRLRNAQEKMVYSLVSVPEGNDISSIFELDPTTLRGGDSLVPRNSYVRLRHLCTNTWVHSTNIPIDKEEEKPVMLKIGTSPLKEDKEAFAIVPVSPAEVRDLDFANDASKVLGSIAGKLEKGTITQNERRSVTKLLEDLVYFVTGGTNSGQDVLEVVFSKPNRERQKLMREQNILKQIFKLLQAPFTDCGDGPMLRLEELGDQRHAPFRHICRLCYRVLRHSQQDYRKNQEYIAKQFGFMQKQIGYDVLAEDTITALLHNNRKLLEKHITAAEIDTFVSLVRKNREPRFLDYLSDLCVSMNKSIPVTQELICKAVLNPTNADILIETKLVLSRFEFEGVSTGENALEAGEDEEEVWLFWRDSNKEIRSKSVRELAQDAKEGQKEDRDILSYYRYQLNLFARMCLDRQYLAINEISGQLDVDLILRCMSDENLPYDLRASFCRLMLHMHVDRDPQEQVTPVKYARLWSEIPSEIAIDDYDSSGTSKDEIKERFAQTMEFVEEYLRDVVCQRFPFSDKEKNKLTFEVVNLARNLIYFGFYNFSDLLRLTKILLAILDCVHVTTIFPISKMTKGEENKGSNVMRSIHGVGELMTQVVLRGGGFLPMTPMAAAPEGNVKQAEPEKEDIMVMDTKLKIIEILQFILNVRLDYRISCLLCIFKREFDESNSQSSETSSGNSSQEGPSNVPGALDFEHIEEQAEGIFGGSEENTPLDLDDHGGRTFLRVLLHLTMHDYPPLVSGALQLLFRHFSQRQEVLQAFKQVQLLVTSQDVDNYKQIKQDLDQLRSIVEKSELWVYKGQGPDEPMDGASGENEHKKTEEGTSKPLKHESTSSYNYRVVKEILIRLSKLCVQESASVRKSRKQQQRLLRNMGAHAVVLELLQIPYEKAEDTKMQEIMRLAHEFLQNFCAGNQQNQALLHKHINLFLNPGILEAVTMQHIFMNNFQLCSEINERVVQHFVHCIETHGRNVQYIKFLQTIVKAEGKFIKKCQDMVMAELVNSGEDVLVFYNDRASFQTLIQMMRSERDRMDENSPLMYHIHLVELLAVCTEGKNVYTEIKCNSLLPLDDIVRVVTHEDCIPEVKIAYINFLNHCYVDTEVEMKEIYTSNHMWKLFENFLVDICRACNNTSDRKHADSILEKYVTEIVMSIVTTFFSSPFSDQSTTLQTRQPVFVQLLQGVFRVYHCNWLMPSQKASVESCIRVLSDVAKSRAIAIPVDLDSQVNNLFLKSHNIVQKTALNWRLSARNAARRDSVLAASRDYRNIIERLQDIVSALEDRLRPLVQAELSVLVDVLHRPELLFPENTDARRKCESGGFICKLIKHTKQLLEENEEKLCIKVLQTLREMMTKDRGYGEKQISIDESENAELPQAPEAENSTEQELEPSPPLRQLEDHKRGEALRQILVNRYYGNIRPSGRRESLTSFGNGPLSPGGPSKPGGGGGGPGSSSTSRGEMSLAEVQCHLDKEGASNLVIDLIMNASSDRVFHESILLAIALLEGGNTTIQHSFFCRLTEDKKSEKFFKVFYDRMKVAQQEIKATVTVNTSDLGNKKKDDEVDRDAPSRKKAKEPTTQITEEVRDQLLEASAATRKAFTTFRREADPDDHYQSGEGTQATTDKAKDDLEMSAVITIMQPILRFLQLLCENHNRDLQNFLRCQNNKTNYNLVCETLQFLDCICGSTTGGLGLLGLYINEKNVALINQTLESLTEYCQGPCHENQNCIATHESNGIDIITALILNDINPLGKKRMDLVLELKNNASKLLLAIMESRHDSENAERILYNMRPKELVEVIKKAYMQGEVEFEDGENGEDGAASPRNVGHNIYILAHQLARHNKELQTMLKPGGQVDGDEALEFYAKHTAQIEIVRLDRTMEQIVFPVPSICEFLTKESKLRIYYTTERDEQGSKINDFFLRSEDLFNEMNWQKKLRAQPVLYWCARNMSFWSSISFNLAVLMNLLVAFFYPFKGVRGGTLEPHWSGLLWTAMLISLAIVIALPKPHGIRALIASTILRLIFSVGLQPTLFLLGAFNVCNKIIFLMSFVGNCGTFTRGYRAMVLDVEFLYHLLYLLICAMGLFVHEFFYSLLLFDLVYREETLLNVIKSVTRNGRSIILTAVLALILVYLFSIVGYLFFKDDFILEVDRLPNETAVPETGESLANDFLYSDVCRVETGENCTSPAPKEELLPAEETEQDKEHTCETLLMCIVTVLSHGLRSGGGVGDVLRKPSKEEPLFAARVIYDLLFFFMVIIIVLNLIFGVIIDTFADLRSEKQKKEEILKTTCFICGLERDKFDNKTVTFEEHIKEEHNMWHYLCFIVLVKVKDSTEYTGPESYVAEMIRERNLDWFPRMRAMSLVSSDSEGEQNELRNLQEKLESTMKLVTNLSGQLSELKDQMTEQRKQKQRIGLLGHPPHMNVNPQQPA

B1: Epsin 1 (endogenous, MAEC and 3T3-L1 cells) (other, mouse, UniProt Q80VP1 1-575, looked up)
chain: MSTSSLRRQMKNIVHNYSEAEIKVREATSNDPWGPSSSLMSEIADLTYNVVAFSEIMSMIWKRLNDHGKNWRHVYKAMTLMEYLIKTGSERVSQQCKENMYAVQTLKDFQYVDRDGKDQGVNVREKAKQLVALLRDEDRLREERAHALKTKEKLAQTATASSAAVGSGPPPEAEQAWPQSSGEEELQLQLALAMSKEEADQPPSCGPEDDVQLQLALSLSREEHDKEERIRRGDDLRLQMAIEESKRETGGKEESSLMDLADVFTTPAPPQASDPWGGPASVPTAVPVAAAASDPWGGPAVPPAADPWGGAAPTPASGDPWRPAAPTGPSVDPWGGTPAPAAGEGPTPDPWGSSDGGAPVSGPPSSDPWAPAPAFSDPWGGSPAKPSSNGTAVGGFDTEPDEFSDFDRLRTALPTSGSSTGELELLAGEVPARSPGAFDMSGVGGSLAESVGSPPPAATPTPTPPTRKTPESFLGPNAALVDLDSLVSRPGPTPPGSKASNPFLPSGAPPTGPSVTNPFQPAPPATLTLNQLRLSPVPPVPGAPPTYISPLGGGPGLPPMMPPGPPAPNTNPFLL
notes: also called epsins
On to B1, for which the binding result in experiment [1] and in experiment [2] was “binds” in each case.

B2: Epsin 1 (endogenous, HUVEC^αvβ3 cells) (other, human, UniProt Q9Y6I3 1-576, looked up)
chain: MSTSSLRRQMKNIVHNYSEAEIKVREATSNDPWGPSSSLMSEIADLTYNVVAFSEIMSMIWKRLNDHGKNWRHVYKAMTLMEYLIKTGSERVSQQCKENMYAVQTLKDFQYVDRDGKDQGVNVREKAKQLVALLRDEDRLREERAHALKTKEKLAQTATASSAAVGSGPPPEAEQAWPQSSGEEELQLQLALAMSKEEADQPPSCGPEDDAQLQLALSLSREEHDKEERIRRGDDLRLQMAIEESKRETGGKEESSLMDLADVFTAPAPAPTTDPWGGPAPMAAAVPTAAPTSDPWGGPPVPPAADPWGGPAPTPASGDPWRPAAPAGPSVDPWGGTPAPAAGEGPTPDPWGSSDGGVPVSGPSASDPWTPAPAFSDPWGGSPAKPSTNGTTAAGGFDTEPDEFSDFDRLRTALPTSGSSAGELELLAGEVPARSPGAFDMSGVRGSLAEAVGSPPPAATPTPTPPTRKTPESFLGPNAALVDLDSLVSRPGPTPPGAKASNPFLPGGGPATGPSVTNPFQPAPPATLTLNQLRLSPVPPVPGAPPTYISPLGGGPGLPPMMPPGPPAPNTNPFLL
notes: also called endogenous epsin 1
B2: the binding result in experiment [3] was “binds”.
